# Assay results reported in US20240052042A1 (Novartis, published 2024).
# T1: human NPR1 on CHO-K1 cells in the presence of ANP (human, UniProt P01160 124-151)
# T1 construct: also called hNPR1 CHO K1 + 100 nM ANP
# T1 sequence: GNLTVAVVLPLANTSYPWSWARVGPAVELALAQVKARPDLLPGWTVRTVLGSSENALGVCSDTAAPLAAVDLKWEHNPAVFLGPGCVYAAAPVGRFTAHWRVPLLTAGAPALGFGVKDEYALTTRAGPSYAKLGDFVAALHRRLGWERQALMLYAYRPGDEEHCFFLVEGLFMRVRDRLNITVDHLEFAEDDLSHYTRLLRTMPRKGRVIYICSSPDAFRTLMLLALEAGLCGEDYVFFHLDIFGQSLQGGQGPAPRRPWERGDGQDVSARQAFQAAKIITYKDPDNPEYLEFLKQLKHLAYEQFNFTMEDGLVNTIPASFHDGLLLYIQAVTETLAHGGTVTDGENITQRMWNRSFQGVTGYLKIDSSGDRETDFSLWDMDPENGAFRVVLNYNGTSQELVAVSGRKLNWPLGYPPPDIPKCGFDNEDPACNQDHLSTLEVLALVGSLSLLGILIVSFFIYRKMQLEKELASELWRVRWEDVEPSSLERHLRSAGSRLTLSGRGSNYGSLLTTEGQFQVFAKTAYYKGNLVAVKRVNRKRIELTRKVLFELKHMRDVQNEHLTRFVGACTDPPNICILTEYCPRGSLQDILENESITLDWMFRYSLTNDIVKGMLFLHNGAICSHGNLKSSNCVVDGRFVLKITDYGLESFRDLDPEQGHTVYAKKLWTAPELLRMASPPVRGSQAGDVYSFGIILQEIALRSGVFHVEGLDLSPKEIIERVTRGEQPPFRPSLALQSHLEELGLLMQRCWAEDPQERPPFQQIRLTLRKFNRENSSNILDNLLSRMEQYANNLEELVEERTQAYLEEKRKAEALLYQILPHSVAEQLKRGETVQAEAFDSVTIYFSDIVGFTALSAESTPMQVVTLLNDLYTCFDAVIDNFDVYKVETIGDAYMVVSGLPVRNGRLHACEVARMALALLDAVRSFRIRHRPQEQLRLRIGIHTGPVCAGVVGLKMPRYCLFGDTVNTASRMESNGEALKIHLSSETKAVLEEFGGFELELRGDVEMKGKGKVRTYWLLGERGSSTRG
# T1 sequence (peptide): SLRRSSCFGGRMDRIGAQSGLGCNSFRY
# T2: hNPR1-ANP complex (human, UniProt P01160 124-151, limits assumed)
# T2 construct: hNPR1 antigen in the presence of ANP; also called hNPR1 + 100 nM ANP
# T2 sequence: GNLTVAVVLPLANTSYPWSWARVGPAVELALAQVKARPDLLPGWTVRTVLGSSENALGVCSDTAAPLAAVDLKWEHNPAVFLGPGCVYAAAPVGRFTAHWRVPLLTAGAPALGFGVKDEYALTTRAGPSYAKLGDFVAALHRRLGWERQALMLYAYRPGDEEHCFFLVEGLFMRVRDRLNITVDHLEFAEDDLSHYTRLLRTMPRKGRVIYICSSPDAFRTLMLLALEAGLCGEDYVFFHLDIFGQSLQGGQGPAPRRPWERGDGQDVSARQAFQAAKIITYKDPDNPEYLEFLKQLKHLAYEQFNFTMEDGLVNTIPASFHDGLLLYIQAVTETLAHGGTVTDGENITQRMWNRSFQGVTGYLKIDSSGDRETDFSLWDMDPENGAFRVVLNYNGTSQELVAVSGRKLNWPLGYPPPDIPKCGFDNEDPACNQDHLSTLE
# T2 sequence (peptide): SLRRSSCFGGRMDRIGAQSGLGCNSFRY
# T3: human NPR1 on CHO-K1 cells (human, UniProt P16066 33-1061)
# T3 sequence: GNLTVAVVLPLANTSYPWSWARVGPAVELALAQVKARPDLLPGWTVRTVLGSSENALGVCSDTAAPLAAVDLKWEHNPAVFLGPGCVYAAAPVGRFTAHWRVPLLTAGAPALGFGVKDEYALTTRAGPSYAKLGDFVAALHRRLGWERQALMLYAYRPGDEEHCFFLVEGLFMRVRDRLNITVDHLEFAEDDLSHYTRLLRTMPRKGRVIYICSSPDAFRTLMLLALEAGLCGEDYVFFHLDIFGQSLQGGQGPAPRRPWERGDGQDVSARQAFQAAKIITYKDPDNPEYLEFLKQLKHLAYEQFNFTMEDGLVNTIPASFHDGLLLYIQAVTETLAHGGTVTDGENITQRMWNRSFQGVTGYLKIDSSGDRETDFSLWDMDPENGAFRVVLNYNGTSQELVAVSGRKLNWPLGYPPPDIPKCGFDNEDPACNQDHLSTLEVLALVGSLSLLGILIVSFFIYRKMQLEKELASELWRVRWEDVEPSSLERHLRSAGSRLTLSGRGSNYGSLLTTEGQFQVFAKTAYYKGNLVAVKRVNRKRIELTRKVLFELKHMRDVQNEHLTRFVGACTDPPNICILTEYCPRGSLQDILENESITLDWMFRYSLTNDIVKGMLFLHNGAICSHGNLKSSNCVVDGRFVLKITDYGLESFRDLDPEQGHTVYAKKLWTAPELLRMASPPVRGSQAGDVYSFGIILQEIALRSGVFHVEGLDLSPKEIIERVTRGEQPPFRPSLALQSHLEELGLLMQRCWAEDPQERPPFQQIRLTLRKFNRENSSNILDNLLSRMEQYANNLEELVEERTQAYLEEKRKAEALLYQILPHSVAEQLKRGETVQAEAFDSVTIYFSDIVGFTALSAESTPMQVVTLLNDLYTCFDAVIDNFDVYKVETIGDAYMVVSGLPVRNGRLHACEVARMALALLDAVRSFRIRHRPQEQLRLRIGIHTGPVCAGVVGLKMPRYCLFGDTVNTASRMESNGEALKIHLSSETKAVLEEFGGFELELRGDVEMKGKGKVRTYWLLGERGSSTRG
# T4: rNPR1-ANP complex (rat, UniProt P01160 124-151 (human entry), limits assumed)
# T4 construct: rNPR1 antigen in the presence of ANP; also called rNPR1 + 100 nM ANP
# T4 sequence: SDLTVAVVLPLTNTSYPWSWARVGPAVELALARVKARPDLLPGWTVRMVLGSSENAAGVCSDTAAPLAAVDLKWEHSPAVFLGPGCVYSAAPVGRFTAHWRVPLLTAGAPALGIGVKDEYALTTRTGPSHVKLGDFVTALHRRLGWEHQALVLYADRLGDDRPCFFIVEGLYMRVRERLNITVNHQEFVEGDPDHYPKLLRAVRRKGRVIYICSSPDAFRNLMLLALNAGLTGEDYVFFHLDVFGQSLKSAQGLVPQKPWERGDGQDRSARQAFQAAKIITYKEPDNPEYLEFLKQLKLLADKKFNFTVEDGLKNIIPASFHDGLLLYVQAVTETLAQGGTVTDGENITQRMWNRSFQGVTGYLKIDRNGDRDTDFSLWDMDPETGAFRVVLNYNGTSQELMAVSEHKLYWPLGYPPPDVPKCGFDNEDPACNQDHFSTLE
# T4 sequence (peptide): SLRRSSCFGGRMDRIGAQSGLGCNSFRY
# Tests used:
# [1] = target: T1, human NPR1 on CHO-K1 cells in the …; test: flow cytometry (FL2-H) on hNPR1 CHO-K1 cells with saturating ANP, IgG titrated; control parental CHO-K1 [Cont.), panel XX07]
# hNPR1-ANP complex [2] = target: T2, hNPR1-ANP complex; test: FRET ANP competition assay, IgG titrated on hNPR1 with Cy5-labeled ANP; negative values mean more ANP signal [Cont.), panel XX07]
# Protocol: The same 31 IgGs were tested for ANP competition using a Fluorescence Resonance Energy Transfer (FRET)-based assay in which the NPR1-specific antibodies competed with ANP for binding to NPR1. In this FRET based assay (see FIG. 3), Eu-labeled Streptavidin (for measurement of IgGs) or Eu-labeled anti-hFc antibody (for measurement of FabCys) was used as an energy donor, while Cy5-labeled ANP was used as an acceptor (for all measurements). The resulting fluorescent signal was decreased by ANP-competitive antibodies. The assay was performed as follows: antibodies were mixed with NPR1 and incubated for 5 minutes at room temperature. […] After a further 60-minute incubation, readout was performed using a TECAN Infinite M1000 Pro using an excitation wavelength of 317 nm and an emission wavelength of 665 nm. Percentage of ANP competition was calculated according to the following formulae: […]
# Furthermore, the clones were tested via ELISA for binding to the following antigens: human NPR1, constitutively active human NPR1 mutant (W74R), rat NPR1, human NPR3 (counter target), each in the absence and presence of ANP, and BSA. The clones were also analyzed by flow cytometry for binding to human NPR1 expressing CHO K1 cells in absence and presence of ANP (100 nM) and to parental CHO K1 cells.
# [3] = target: T1, human NPR1 on CHO-K1 cells in the …; test: flow cytometry (FL2-H) on hNPR1 CHO-K1 cells with saturating ANP, IgG titrated; control parental CHO-K1 [Cont.), panel XX12]
# hNPR1-ANP complex [4] = target: T2, hNPR1-ANP complex; test: FRET ANP competition assay, IgG titrated on hNPR1 with Cy5-labeled ANP; negative values mean more ANP signal [Cont.), panel XX12]
# Protocol: The same 31 IgGs were tested for ANP competition using a Fluorescence Resonance Energy Transfer (FRET)-based assay in which the NPR1-specific antibodies competed with ANP for binding to NPR1. In this FRET based assay (see FIG. 3), Eu-labeled Streptavidin (for measurement of IgGs) or Eu-labeled anti-hFc antibody (for measurement of FabCys) was used as an energy donor, while Cy5-labeled ANP was used as an acceptor (for all measurements). The resulting fluorescent signal was decreased by ANP-competitive antibodies. The assay was performed as follows: antibodies were mixed with NPR1 and incubated for 5 minutes at room temperature. After addition of the Eu-labeled donor and incubation for 30 minutes at room temperature, the Cy5-ANP solution was added. After a further 60-minute incubation, readout was performed using a TECAN Infinite M1000 Pro using an excitation wavelength of 317 nm and an emission wavelength of 665 nm. Percentage of ANP competition was calculated according to the following formulae: […]
# [5] = target: T3, human NPR1 on CHO-K1 cells; test: cell-based or functional assay
# hNPR1-ANP complex [6] = target: T2, hNPR1-ANP complex; test: FabCys affinity (Biacore per paragraph 323)
# rNPR1-ANP complex [7] = target: T4, rNPR1-ANP complex; test: FabCys affinity (Biacore per paragraph 323)
# hNPR1-ANP complex [8] = target: T2, hNPR1-ANP complex; test: FabCys, parental value by Biacore, as in Table 5
# rNPR1-ANP complex [9] = target: T4, rNPR1-ANP complex; test: FabCys, parental value by Biacore, as in Table 5
binder,measurement,setting,value
"XX07 (IgG format) (antibody, V domains shown) VH: QVQLLESGGGLVQPGGSLRLSCAASGFTFSSYWMNWVRQAPGKGLEWVSAISSDGSYTYYADSVKGRFTISRDNSKNTLYLQMNSLRAEDTAVYYCARDRYSMIYSYGAGAFDYWGQGTLVTVSS VL: DIQMTQSPSSLSASVGDRVTITCRASQGISSYLAWYQQKPGKAPKLLIYTASTLQSGVPSRFSGSGSGTDFTLTISSLQPEDFATYYCQQIWTVPRTFGQGTKVEIK",EC50 (read off the curve),[1],~2 nM
same,EC50 (read off the curve),hNPR1-ANP complex [2],~0.3 nM
"XX12 (IgG format) (antibody, V domains shown) VH: QVQLLESGGGLVQPGGSLRLSCAASGFTFSSYWMNWVRQAPGKGLEWVSAISSDGSYTYYADSVKGRFTISRDNSKNTLYLQMNSLRAEDTAVYYCARDRYSMIYSYGAGAFDYWGQGTLVTVSS VL: DIQMTQSPSSLSASVGDRVTITCRASQGISSYLAWYQQKPGKAPKLLIYTASTLQSGVPSRFSGSGSGTDFTLTISSLQPEDFATYYCQQIWMAPRTFGQGTKVEIK",EC50 (read off the curve),[3],~0.8 nM
same,EC50 (read off the curve),hNPR1-ANP complex [4],~0.4 nM
"WW01 (FabCys format) (Fab, V domains shown, Monovalent disulfide-bridged FabCys) VH: QVQLLESGGGLVQPGGSLRLSCAASGFTFNTHYIHWVRQAPGKGLEWVSSISGSGSNTYYADSVKGRFTISRDNSKNTLYLQMNSLRAEDTAVYYCARERGYVYYHMFDPWGQGTLVTVSS VL: DIVLTQSPATLSLSPGERATLSCRASQSITRNYLAWYQQKPGQAPRLLIYGASSRATGIPARFSGSGSGTDFTLTISSLEPEDFAVYYCQQHSMYPRTFGQGTKVEIK","cGMP conc [nM] at 2 µM FabCys, +0.075 nM ANP",[5],121 nM
same,"cGMP conc [nM] at 2 µM FabCys, without ANP",[5],30 nM
same,Kd,hNPR1-ANP complex [6],1.5 nM
same,Kd,rNPR1-ANP complex [7],2 nM
same,Kd,hNPR1-ANP complex [8],1.5 nM
same,Kd,rNPR1-ANP complex [9],2 nM
